Holding throughout (conditions): protein: recombinant; label: 13-nm gold nanosphere via DNA1 3' thiol; partial duplex: aptamer 5' part pairs with DNA1; aptamer 3' overhang; DNA1 3' AAA tail
Series [1] has as its target T1, MMP-7 (human, UniProt P09237 95-267).
T1 sequence: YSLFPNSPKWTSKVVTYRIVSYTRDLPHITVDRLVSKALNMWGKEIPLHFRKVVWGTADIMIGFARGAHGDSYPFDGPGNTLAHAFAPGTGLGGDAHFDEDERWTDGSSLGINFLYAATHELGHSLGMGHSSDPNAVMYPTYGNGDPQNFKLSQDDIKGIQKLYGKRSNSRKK
Kind of series: SERS nanosensor (aptamer strand displacement); 100 ng/mL; AuNS-2 with DNA2/DTNB present; Assay buffer for MMP-9 in solution not in the material; duplex annealed in 8 mM phosphate, 0.8 mM MgCl2, 20 mM NaCl; cell supernatant assay at 37 C for 2 h.

In series [2] the target is MMP-2 (human, UniProt P08253 110-660). Described as above.
The target in series [3] is MMP-3 (human, UniProt P08254 100-477). Described as above.
The target of series [4] is MMP-9 (human, UniProt P14780 107-707). The series can be described thus: SERS nanosensor (aptamer strand displacement, AuNS aggregation; UV-vis, DLS, TEM); MMP-9 10 ng/mL (selectivity), 350 ng/mL (UV-vis, DLS, TEM); AuNS-2 with DNA2/DTNB present; Assay buffer for MMP-9 in solution not in the material; duplex annealed in 8 mM phosphate, 0.8 mM MgCl2, 20 mM NaCl; cell supernatant assay at 37 C for 2 h.
MMP-9, sequence (P14780 107-707): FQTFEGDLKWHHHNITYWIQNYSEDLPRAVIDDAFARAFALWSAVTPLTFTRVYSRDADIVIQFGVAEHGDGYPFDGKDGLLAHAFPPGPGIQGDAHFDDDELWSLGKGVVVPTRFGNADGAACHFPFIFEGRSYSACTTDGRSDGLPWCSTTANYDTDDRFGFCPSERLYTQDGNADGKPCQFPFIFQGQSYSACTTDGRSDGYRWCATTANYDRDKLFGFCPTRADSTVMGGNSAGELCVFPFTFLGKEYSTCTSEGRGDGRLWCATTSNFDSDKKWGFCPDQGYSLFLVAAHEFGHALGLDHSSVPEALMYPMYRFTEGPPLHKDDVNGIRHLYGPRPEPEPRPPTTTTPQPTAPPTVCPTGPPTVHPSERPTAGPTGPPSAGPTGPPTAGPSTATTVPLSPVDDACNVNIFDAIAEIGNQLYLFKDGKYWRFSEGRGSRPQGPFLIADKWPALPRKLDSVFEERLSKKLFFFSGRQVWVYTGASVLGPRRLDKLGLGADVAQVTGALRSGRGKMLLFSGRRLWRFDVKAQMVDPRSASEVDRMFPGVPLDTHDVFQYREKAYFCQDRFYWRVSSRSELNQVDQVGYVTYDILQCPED

MMP-3, sequence (P08254 100-477): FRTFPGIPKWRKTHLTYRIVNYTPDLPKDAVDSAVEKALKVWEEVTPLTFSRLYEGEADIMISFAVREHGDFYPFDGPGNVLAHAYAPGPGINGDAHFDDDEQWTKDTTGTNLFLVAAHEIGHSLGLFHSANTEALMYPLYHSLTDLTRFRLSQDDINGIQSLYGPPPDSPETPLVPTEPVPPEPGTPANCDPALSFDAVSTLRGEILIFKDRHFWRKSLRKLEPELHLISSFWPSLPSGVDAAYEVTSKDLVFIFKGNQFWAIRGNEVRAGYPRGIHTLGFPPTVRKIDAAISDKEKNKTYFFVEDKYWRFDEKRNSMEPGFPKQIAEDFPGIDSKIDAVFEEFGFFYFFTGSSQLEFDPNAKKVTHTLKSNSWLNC
MMP-2, sequence (P08253 110-660): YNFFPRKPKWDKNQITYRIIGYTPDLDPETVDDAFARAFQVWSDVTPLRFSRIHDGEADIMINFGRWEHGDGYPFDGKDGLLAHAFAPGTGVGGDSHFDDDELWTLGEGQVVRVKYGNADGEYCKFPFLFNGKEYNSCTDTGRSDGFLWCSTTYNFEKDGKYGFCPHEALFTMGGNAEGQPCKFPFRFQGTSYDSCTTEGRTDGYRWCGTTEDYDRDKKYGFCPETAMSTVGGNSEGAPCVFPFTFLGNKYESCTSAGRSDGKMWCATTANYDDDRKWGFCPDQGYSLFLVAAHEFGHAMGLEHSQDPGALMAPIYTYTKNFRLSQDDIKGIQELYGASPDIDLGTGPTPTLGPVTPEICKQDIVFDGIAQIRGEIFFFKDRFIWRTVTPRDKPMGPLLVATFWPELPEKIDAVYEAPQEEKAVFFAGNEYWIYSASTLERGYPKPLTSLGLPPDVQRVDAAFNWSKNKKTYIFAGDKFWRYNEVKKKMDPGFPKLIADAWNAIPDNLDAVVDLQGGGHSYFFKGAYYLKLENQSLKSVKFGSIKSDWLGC

B1: MMP-9 aptamer (annealed to DNA1 on AuNS-1) (mixed)
DNA 1: TCGTATGGCACGGGGTTGGTGTTGGGTTGG
DNA 2: GGTGTGCCATACGAAA
modifications: DNA1 3' ThioMC3-D
For B1, the binding result is listed as “no binding” in series [1], “no binding” in series [2], “no binding” in series [3] and “binds” in series [4].

The record behind these values is PMC10798921, “Target-induced hot spot construction for sensitive and selective surface-enhanced Raman scattering detection of matrix metalloproteinase MMP-9”.
